Laboratory results from US20220031842A1 (JIANGSU HENGRUI MEDICINE, published 2022).

T1: Full length of LAG-3 (human LAG-3 over-expressed on CHO-S cells) (human, UniProt P18627 23-525)
T1 construct: also called LAG-3 over-expressing CHO-S cells; full-length LAG-3
T1 sequence: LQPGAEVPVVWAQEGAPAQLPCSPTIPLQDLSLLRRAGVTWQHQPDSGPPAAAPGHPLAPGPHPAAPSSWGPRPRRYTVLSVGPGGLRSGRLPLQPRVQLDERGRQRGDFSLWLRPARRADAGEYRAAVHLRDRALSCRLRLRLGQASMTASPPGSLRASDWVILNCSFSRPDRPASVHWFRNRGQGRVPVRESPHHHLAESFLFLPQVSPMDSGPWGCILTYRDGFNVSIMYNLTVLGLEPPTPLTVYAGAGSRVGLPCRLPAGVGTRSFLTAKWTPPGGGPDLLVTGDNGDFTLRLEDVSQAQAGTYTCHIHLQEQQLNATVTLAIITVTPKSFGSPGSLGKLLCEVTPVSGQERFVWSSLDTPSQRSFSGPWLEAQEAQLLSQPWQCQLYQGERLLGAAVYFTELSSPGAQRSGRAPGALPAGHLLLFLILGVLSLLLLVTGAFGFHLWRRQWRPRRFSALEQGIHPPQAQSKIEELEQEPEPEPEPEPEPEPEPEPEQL

T2: LAG-3 extracellular domain with a Flag tag (human, UniProt P18627 23-434)
T2 construct: also called LAG-3-Flag; LAG-3-Flag antigen
T2 sequence: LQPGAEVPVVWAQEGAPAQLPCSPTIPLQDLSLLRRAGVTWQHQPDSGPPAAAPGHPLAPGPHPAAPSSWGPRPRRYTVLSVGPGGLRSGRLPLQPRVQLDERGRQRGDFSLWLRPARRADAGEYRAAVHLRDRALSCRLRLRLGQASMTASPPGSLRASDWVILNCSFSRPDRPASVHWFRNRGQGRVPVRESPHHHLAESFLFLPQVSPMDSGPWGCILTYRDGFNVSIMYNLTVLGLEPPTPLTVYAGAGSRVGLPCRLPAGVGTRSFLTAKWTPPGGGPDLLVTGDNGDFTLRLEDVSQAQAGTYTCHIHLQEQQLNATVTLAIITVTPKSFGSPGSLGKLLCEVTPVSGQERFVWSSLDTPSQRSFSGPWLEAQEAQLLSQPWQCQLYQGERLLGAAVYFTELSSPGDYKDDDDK


What was measured:
[1] = target: T1, Full length of LAG-3 (human LAG-3 …); experiment: cell ELISA on fixed CHO-S cells overexpressing full-length human LAG-3
Procedure: 100 μl/well of cells were seeded into 96-well plate at a density of 4×10⁵/ml and incubated overnight. The supernatant was discarded, and the plate was washed three times with PBS, and was fixed with 4% PFA (100 μl/well) for half an hour at room temperature, and then the plate was washed three times with PBS. After discarding the liquid, the plate was blocked with 200 μl/well of blocking solution containing 5% skim milk (Bright Dairy, skim milk powder) diluted in PBS, and incubated at 37° C. for 2.5 hours. After blocking, the blocking solution was discarded and the plate was washed 5 times with PBST buffer (PH7.4 PBS containing 0.05% tween-20), added with 50 μl/well of various concentrations of antibodies to be tested (Hybridoma purified antibody or humanized antibody) which have been diluted with sample diluent, and then incubated in incubator at 37° C. for 1 h. The plate was washed 5 times with PBST after incubation, added with 100 μl/well of goat anti-mouse (Jackson Immuno Research, Cat No. 115-035-003) or goat anti-human secondary antibody (Jackson Immuno Research, Cat No. 109-035-003) labeled with HRP, diluted in sample diluent, and the plate was incubated at 37° C. for 1 h. […]

[2] = target: T3, Fusion protein of LAG-3 extracellular region and hIgG1 Fc (human); experiment: competition: biotin-LAG-3-Fc binding to fixed Daudi cells, antibody titrated
T3 construct: Limits of the signal peptide are marked only by lost underlining; also called LAG-3-Fc; LAG-3-Fc fusion protein
Procedure: Daudi cells (human leukemia cells, purchased from the cell bank in Chinese Academy of Sciences) were seeded in 96-well plate with a density of 3×10⁵/well. After centrifugation at 1000 rpm, the supernatant was discarded and then the plate was fixed with 4% PFA for 30 min at room temperature. The plate was washed 4 times with PBS after discarding the fixed solution, and the plate was blocked with 200 μl/well of blocking solution containing 5% skim milk (Bright Dairy, skim milk powder) diluted in PBS, and incubated at 37° C. for 2.5 hours. After blocking, the blocking solution was discarded and the plate was washed 5 times with PBST buffer (pH7.4 PBS containing 0.05% tween-20), added with 50 μl/well mixture of biotin-labeled (Biotin labeling kit, Dojindo Chemical, Cat No. LK03) LAG-3-Fc fusion protein (produced in-house, SEQ ID NO: 3) and gradient concentrations of the antibody to be tested, wherein the biotin-labeled LAG-3-Fc fusion protein has been diluted with sample diluent (PH7.4 PBS containing 1% BSA) at a final concentration of 0.4 μg/ml, and pre-mixed for an hour, then the plate was incubated at 37° C. for 1 h. […] The OD value at a wavelength of 450 nm was read on NOVOStar microplate reader, and then the activity of the LAG-3 antibody in blocking the binding of the antigen to Daudi cells was calculated.

[3] = target: T2, LAG-3 extracellular domain with a Flag …; experiment: SPR (Biacore), antibody captured on anti-human capture chip, LAG-3-Flag in flow
Text: (§1) 2. […] Then, the LAG-3-Flag antigen (produced in-house, SEQ ID NO:1) was flowed through the surface of the biochip, and the reaction signal was detected real time using a Biacore instrument to obtain the binding and dissociation curves, the value of affinity was obtained by fitting, see table 10 below. After each cycle of dissociation was finished in the experiment, the biochip was washed and regenerated with a regeneration solution provided in the human anti-capture kit.

[4] = target: T2, LAG-3 extracellular domain with a Flag …; experiment: SPR (Biacore), antibody captured on anti-mouse capture chip, LAG-3-Flag in flow
Text: as §1, with “1.” for “2.”, “detected in” for “detected”, “time by” for “time”, “see above” for “see”, “2.” for “10 below.”, “mouse” for “human”

EC50 [1] [nM] | IC50 [2] [nM] | Kd [3] [nM] | Kd [4] [nM] | Binder
0.279 | 0.596 | 0.0749 | 0.47 | mAb303 (antibody, V domains shown, Murine hybridoma antibody; also called LAG-3 antibody mAb303; hybridoma clone mAb303) VH: EVQLQQSGPVLVKPGASVKMSCKASGYTLTDYYMNWVKQSHGKSLEWIGVINPYNGDTAYNQKFKGKATLTVDKSSNTAYMEINSLTSEDSAVYYCTRDDGYYDYYFDVWGTGTTVTVSS VL: DIQMTQSPSSLSASLGERVILTCRASQDIGSRLNWLQQGPDGTFKRLIYATSTLDSGVPKRFSGSRSGSDFSLTISSLESEDFVDYYCLQLASSPPTFGGGTKLEIK
0.191 | 1.33 | 0.0172 | 0.426 | mAb229 (antibody, V domains shown, Murine hybridoma antibody; also called LAG-3 antibody mAb229; hybridoma clone mAb229) VH: QIQLVQSGPELKKPGETVKISCKASGYTFTTSGMSWVKQAPGKGLKWMGWINTYSGVPTYADDFKGRFAFSLETSASTAYLQINNLKNEDTATYFCARDNYDARDVYYYAMDYWGQGTSVTVSS VL: DIQMTQSPASLSVSVGETVTITCRASENIYSNLAWYQQKQGKSPQLLVYAATNLADGVPSRFSGSGSGTQYSLKINSLQSEDFGSYYCQHFWITPWTFGGGTKLEIK
